B1: Full length UL16 on transfected 293 EBNA cells (other)
chain: VDLGSKSSNSTCRLNVTELASIHPGETWTLHGMCISICYYENVTEDEIIGVAFTWQHNESVVDLWLYQNDTVIRNFSDITTNILQDGLKMRTVPVTKLYTSRMVTNLTVGRYDCLRCENGTTKIIERLYVRLGSLYPRPPGSGLAKHPSVSADEELSATLARDIVLVSAITLFFFLLALRIPQRLCQRLRIRLPHRYQRLRTED
notes: whole, on cells; also called UL16 FL

For one experiment, the target named is T1, MICA/Fc (UniProt Q29983 24-307).
T1 construct: not shown: Fc portion not described
T1 sequence (looked up): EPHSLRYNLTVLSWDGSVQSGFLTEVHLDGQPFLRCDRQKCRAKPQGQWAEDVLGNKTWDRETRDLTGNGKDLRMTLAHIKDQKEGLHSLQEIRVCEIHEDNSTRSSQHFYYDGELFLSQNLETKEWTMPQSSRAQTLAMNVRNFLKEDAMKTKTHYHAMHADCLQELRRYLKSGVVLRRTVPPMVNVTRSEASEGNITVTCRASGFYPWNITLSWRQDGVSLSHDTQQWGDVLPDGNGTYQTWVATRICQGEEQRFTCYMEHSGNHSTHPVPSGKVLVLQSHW
Briefly: flow cytometry on 293 EBNA cells transfected with full length UL16.

In experiment [1] the target is T2, NKG2D/Dap10 on transfected 293E cells (UniProt P26718 1-216; Q9UBK5 19-93).
T2 construct: whole, on cells; Co-expressed on 293 EBNA (293E) cells from the pDC409 vector; also called NKG2D+FLAG tagged Dap10
T2 sequence 1: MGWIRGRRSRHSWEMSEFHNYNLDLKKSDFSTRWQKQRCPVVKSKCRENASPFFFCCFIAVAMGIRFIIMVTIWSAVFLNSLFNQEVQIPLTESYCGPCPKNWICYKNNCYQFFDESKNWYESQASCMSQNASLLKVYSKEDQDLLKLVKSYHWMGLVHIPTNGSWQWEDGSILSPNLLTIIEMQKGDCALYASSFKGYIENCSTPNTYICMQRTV
T2 sequence 2: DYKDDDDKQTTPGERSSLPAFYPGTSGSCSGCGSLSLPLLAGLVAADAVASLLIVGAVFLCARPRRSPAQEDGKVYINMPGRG
Briefly: flow cytometry; NKG2D/Dap10-transfected 293E cells preincubated with 25 µg ULBP1/LZ (competitor).

Experiment [2] concerns the target B1. Briefly: flow cytometry, transfected 293 EBNA cells, 2 µg Fc protein + goat anti-human IgG PE.
Experiment [3] deals with T3, FLAG tagged Dap10 alone on transfected 293 EBNA cells (UniProt Q9UBK5 19-93).
T3 construct: whole, on cells
T3 sequence: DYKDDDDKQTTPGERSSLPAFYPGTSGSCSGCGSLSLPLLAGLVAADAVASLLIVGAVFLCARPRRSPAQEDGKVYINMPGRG
Described as above.

The target of experiment [4] is T4, NKG2D alone on transfected 293 EBNA cells (UniProt P26718 1-216, limits assumed).
T4 construct: whole, on cells
T4 sequence (looked up): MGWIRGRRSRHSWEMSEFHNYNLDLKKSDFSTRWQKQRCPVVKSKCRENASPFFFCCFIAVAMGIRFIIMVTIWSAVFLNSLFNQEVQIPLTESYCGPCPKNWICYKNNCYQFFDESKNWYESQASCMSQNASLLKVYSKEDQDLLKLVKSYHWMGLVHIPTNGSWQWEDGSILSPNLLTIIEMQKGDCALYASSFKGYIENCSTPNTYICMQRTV
The description is as above.

In experiment [5] the target is T2, NKG2D/Dap10 on transfected 293E cells. The description is as above.
Experiment [6] deals with B1. Briefly: flow cytometry on 293 EBNA cells transfected with full length UL16.
The target in experiment [7] is T2, NKG2D/Dap10 on transfected 293E cells. Briefly: flow cytometry; NKG2D/Dap10-transfected 293E cells preincubated with 25 µg hCD40L/LZ (control blocking protein).

Turning to B1, the binding result with MICA/Fc is listed as “no binding (tested: 2 µg)”.

B2: ULBP3/Fc (Fc fusion)
chain: DAHSLWYNFTIIHLPRHGQQWCEVQSQVDQKNFLSYDCGSDKVLSMGHLEEQLYATDAWGKQLEMLREVGQRLRLELADTELEDFTPSGPLTLQVRMSCECEADGYIRGSWQFSFDGRKFLLFDSNNRKWTVVHAGARRMKEKWEKDSGLTTFFKMVSMRDCKSWLRDFLMHRKKRLEPTAPPTMAPG
notes: That entry lacks the first five residues of the leader and still holds the rest of the signal peptide and the GPI signal; not shown: Fc portion of ULBP3/Fc is not described
With B2, the “Mean Fluorescence Intensity (MFI)” value in experiment [1] stood at 13 MFI; in experiment [2] it was 11.9 MFI; in experiment [3], 14 MFI; in experiment [4], 9.55 MFI; in experiment [5], 102 MFI; in experiment [7], 267 MFI. In experiment [6], the binding result is on record as “no binding (tested: 2 µg)”.

Values taken from patent publication US20030147847A1 (IMMUNEX, published 2003).
